Source: US7985587B2, “Methods of culturing dermal papilla cells” (The General Hospital Corporation, priority 2000, dated 2011)

B1: Wnt 4: Wnt protein supplied by chick embryo fibroblast feeder cells infected with RCASBP(A) retroviral vector encoding Wnt4 (protein, UniProt P49337 23-351, looked up)
Protein Wnt-4: SNWLYLAKLSSVGSISEEETCEKLKGLIQRQVQMCKRNLEVMDSVRRGAQLAIEECQYQFRNRRWNCSTLDTLPVFGKVVTQGTREAAFVYAISSAGVAFAVTRACSSGELDKCGCDRTVQGGSPQGFQWSGCSDNIAYGVAFSQSFVDVRERSKGASSNRALMNLHNNEAGRKAILNNMRVECKCHGVSGSCEFKTCWKAMPPFRKVGNVLKEKFDGATEVEQSEIGSTKVLVPKNSQFKPHTDEDLVYLDSSPDFCDHDLKNGVLGTSGRQCNKTSKAIDGCELMCCGRGFHTDEVEVVERCSCKFHWCCSVKCKPCHRVVEIHTCR
B2: Wnt3a: Wnt protein supplied by chick embryo fibroblast feeder cells infected with RCASBP(A) retroviral vector encoding Wnt3a (protein, UniProt Q2LMP1 19-352, looked up)
Protein Wnt-3a: SYPIWWSLAIGHQYSSLGTQPILCGSIPGLVPKQLRFCRNYVEIMPSVAEGVKIGIQECQHQFRGRRWNCTTVNDSLAIFGPVLDKATRESAFVHAIASAGVAFAVTRSCAEGSATICGCDTRHKGSPGEGWKWGGCSEDVEFGSMVSREFADARENRPDARSAMNRHNNEAGRTSIIELMHLKCKCHGLSGSCEVKTCWWSQPDFRVIGDYLKDKYDSASEMVVEKHRESRGWVETLRPKYNFFKAPTEKDLVYYENSPNFCEPNPETGSFGTRDRICNVTSHGIDGCDLLCCGRGHNTRTEKRKEKCHCIFHWCCYVRCQECIRVYDVHTCK

Experiments:
[1] = tested on: versican GFP transgenic mouse pelage DP cells; assay: Flow cytometric analysis of GFP expression in DP cells co-cultured with feeder cells; assay type: cell-based; conditions: for GFP expression (GFP fluorescence) of DP cells: freshly isolated DP cells co-cultured with feeder cells expressing the protein, FACS analysis
Excerpt: (§1) Fresh mouse pelage DP cells were obtained from versican GFP transgenic newborn skin by high-speed cell sorting (MoFLO) as described previously in Kishimoto et al., supra. Chick embryo fibroblasts (CEFs) were infected with RCASBP(A) retroviral vectors encoding chick Shh, as described in Riddle et al. (1993) Cell 75:1401-1416, Wnt3a, as described in Kengaku et al. (1998) Science 280:1274-1277, Wnt4, Wnt5a (Noramly and Morgan, in prep), or Wnt7a, as described in Riddle et al. (1995) Cell 83:631-640, or vector alone as described, as described in Morgan et al. in Methods in Cell Biology (ed. Bonner-Fraser) pp. 185-218 (Academic Press, San Diego, 1996). GFP positive mouse DP cells were added onto 30-50% confluent feeder cells to achieve a ratio of 1:3 (mouse:chick). For the flow cytometric analysis, cells were co-cultured in 24 well dishes for 48-96 hrs. For the grafting experiment co-cultured cells were passaged 2-3 times in 10 cm dishes to generate the 2×10^6 cells required for each graft.
Cells were trypsinized and resuspended in 0.5 ml PBS with 1% BSA. Flow cytometric analysis was performed by FACScan (Becton Dickinson). DP cells were labeled with mouse MHC class II monoclonal antibody and incubated with secondary IgG conjugated to PE. The PE negative avian cells fell below the lower gate in FIG. 3 and were excluded from the analysis of GFP expression.

[2] = tested on: hair inductive activity of DP cells; assay: Skin reconstitution assay: co-cultured DP cells plus keratinocytes grafted on nude mouse hosts; assay type: in vivo
Excerpt: as §1
The reconstitution assay was performed as described in Kishimoto et al., supra. Primary keratinocytes were prepared from 2 newborn pups per graft and combined with 2×10^6 DP cells in the graft chamber. Hair growth was monitored two weeks after grafting and weekly thereafter.

[3] = tested on: versican GFP transgenic mouse pelage DP cells; assay: RT-PCR analysis of gene expression in DP cells co-cultured with feeder cells; assay type: cell-based; conditions: freshly isolated DP cells co-cultured with feeder layers
Procedure: Total RNA was isolated and RT PCR performed as described in Kishimoto et al. (1999) Proc. Natl Acad. Sci. USA 96:7336-7341, using an annealing temperature of 58° C. The primers employed are listed below. With the exception of Wnts 4, 5 and 7, the primers were designed to distinguish between mouse and chicken orthologues and the lack of cross reaction to chick sequences was confirmed on cDNA from feeder cells alone.
as §1, with “For the grafting experiment co-cultured cells were passaged 2-3 times in 10 cm dishes to generate the 2×10^6 cells required for each graft.” left out

[4] = DP cells maintained in culture until GFP expression and hair inductive activity were lost

| Molecule | GFP expression (GFP fluorescence) of DP cells [1] | reactivation of GFP expression in DP cells that lost it in culture [1, 4] | reactivation of hair inductive activity in DP cells that lost it in culture [2, 4] | hair growth / hair inductive activity of co-cultured DP cells ([2]; reconstituted skin on nude mouse host, compared to cells co-cultured with control feeders or Shh expression cells) | hair in graft of treated DP cells ([2]; three weeks after grafting to nude mouse, DP cells co-cultured with feeder cells, combined with keratinocytes) | GFP RNA levels in DP cells [3] |
| --- | --- | --- | --- | --- | --- | --- |
| B1 | some maintenance of GFP expression but were less potent than either Wnt3a or 7a |  |  |  |  |  |
| B2 | maintenance of GFP fluorescence in the majority of the DP cells | cannot reactivate | cannot reactivate | dramatic increase in hair growth | formed a dense patch of hair in the graft | maintained |
